The star is where a group is joined. Palmitoyl = CCCCCCCCCCCCCCCC(=O)*
Biological target: Insulin-like growth factor 1 receptor (IGF1R) (UniProt P08069 31-1367, limits assumed)
Assay: cell-based or functional assay

Insulin-like growth factor 1 receptor (IGF1R), sequence (P08069 31-1367 limits assumed): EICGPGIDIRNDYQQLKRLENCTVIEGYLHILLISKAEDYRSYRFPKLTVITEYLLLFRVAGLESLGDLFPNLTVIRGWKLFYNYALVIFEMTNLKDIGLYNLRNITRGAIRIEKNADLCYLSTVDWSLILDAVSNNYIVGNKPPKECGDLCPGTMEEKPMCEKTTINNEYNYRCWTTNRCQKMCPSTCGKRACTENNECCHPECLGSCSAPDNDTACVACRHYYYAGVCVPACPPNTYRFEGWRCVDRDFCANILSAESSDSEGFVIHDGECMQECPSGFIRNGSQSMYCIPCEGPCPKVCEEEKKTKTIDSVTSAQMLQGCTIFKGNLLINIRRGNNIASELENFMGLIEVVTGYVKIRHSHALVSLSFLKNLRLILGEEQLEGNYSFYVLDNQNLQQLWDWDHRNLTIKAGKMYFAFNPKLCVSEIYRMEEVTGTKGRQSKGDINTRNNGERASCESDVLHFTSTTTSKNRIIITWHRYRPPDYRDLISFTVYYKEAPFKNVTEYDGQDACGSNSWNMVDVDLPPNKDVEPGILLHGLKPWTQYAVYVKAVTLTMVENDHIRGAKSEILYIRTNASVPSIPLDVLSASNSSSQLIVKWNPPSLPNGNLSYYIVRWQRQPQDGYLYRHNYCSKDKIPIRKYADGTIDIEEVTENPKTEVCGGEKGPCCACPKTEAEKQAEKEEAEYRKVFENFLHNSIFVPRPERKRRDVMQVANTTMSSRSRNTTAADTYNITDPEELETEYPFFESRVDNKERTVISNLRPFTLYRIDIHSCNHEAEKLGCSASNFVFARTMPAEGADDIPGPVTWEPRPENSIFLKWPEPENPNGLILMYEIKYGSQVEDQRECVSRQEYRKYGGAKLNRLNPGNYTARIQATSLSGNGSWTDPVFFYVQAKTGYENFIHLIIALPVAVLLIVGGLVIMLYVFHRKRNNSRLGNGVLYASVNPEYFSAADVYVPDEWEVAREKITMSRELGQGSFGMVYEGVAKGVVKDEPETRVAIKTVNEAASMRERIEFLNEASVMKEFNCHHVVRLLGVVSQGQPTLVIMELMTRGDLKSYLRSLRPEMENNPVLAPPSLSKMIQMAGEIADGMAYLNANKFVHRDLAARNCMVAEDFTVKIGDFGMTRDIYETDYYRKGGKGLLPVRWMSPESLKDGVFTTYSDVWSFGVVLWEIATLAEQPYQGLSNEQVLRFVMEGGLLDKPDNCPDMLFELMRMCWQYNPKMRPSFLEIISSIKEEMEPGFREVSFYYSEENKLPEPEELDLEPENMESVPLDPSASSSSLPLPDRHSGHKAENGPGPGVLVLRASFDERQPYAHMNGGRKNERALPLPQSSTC

GI50 (µM), MTT assay, MCF-7 cells [µM]	TGI (µM), MTT assay, MCF-7 cells [µM]	Binder
1.1	2.5	Palmitoyl-KRNNSRLGNGVLY-NH2 (SMILES CCCCCCCCCCCCCCCC(=O)N[C@@H](CCCCN)C(=O)N[C@@H](CCCNC(=N)N)C(=O)N[C@@H](CC(N)=O)C(=O)N[C@@H](CC(N)=O)C(=O)N[C@@H](CO)C(=O)N[C@@H](CCCNC(=N)N)C(=O)N[C@@H](CC(C)C)C(=O)NCC(=O)N[C@@H](CC(N)=O)C(=O)NCC(=O)N[C@H](C(=O)N[C@@H](CC(C)C)C(=O)N[C@@H](Cc1ccc(O)cc1)C(N)=O)C(C)C) [peptide 27 (Pal-KRNNSRLGNGVLY-NH2)]
1.3	> 5	Palmitoyl-HRKRNNSRLG-NH2 (SMILES CCCCCCCCCCCCCCCC(=O)N[C@@H](Cc1c[nH]cn1)C(=O)N[C@@H](CCCNC(=N)N)C(=O)N[C@@H](CCCCN)C(=O)N[C@@H](CCCNC(=N)N)C(=O)N[C@@H](CC(N)=O)C(=O)N[C@@H](CC(N)=O)C(=O)N[C@@H](CO)C(=O)N[C@@H](CCCNC(=N)N)C(=O)N[C@@H](CC(C)C)C(=O)NCC(N)=O) [peptide 2 (Pal-HRKRNNSRLG-NH2)]
0.08	0.5	Palmitoyl-KRNNSRLGNGVLYASVN-NH2 (SMILES CCCCCCCCCCCCCCCC(=O)N[C@@H](CCCCN)C(=O)N[C@@H](CCCNC(=N)N)C(=O)N[C@@H](CC(N)=O)C(=O)N[C@@H](CC(N)=O)C(=O)N[C@@H](CO)C(=O)N[C@@H](CCCNC(=N)N)C(=O)N[C@@H](CC(C)C)C(=O)NCC(=O)N[C@@H](CC(N)=O)C(=O)NCC(=O)N[C@H](C(=O)N[C@@H](CC(C)C)C(=O)N[C@@H](Cc1ccc(O)cc1)C(=O)N[C@@H](C)C(=O)N[C@@H](CO)C(=O)N[C@H](C(=O)N[C@@H](CC(N)=O)C(N)=O)C(C)C)C(C)C) [peptide 13 (Pal-KRNNSRLGNGVLYASVN-NH2)]
1.65	> 5	Palmitoyl-HRKRNNSRLGNGVLY-NH2 (SMILES CCCCCCCCCCCCCCCC(=O)N[C@@H](Cc1c[nH]cn1)C(=O)N[C@@H](CCCNC(=N)N)C(=O)N[C@@H](CCCCN)C(=O)N[C@@H](CCCNC(=N)N)C(=O)N[C@@H](CC(N)=O)C(=O)N[C@@H](CC(N)=O)C(=O)N[C@@H](CO)C(=O)N[C@@H](CCCNC(=N)N)C(=O)N[C@@H](CC(C)C)C(=O)NCC(=O)N[C@@H](CC(N)=O)C(=O)NCC(=O)N[C@H](C(=O)N[C@@H](CC(C)C)C(=O)N[C@@H](Cc1ccc(O)cc1)C(N)=O)C(C)C) [peptide 9 (Pal-HRKRNNSRLGNGVLY-NH2)]
1.4	> 5	Palmitoyl-HRKRNNSRLGNGVLYA-NH2 (SMILES CCCCCCCCCCCCCCCC(=O)N[C@@H](Cc1c[nH]cn1)C(=O)N[C@@H](CCCNC(=N)N)C(=O)N[C@@H](CCCCN)C(=O)N[C@@H](CCCNC(=N)N)C(=O)N[C@@H](CC(N)=O)C(=O)N[C@@H](CC(N)=O)C(=O)N[C@@H](CO)C(=O)N[C@@H](CCCNC(=N)N)C(=O)N[C@@H](CC(C)C)C(=O)NCC(=O)N[C@@H](CC(N)=O)C(=O)NCC(=O)N[C@H](C(=O)N[C@@H](CC(C)C)C(=O)N[C@@H](Cc1ccc(O)cc1)C(=O)N[C@@H](C)C(N)=O)C(C)C) [peptide 8 (Pal-HRKRNNSRLGNGVLYA-NH2)]
0.1	0.4	Palmitoyl-RNNSRLGNGVLYASVN-NH2 (SMILES CCCCCCCCCCCCCCCC(=O)N[C@@H](CCCNC(=N)N)C(=O)N[C@@H](CC(N)=O)C(=O)N[C@@H](CC(N)=O)C(=O)N[C@@H](CO)C(=O)N[C@@H](CCCNC(=N)N)C(=O)N[C@@H](CC(C)C)C(=O)NCC(=O)N[C@@H](CC(N)=O)C(=O)NCC(=O)N[C@H](C(=O)N[C@@H](CC(C)C)C(=O)N[C@@H](Cc1ccc(O)cc1)C(=O)N[C@@H](C)C(=O)N[C@@H](CO)C(=O)N[C@H](C(=O)N[C@@H](CC(N)=O)C(N)=O)C(C)C)C(C)C) [peptide 14 (Pal-RNNSRLGNGVLYASVN-NH2)]
2.5	> 5	Palmitoyl-HRKRNNSRLGNGV-NH2 (SMILES CCCCCCCCCCCCCCCC(=O)N[C@@H](Cc1c[nH]cn1)C(=O)N[C@@H](CCCNC(=N)N)C(=O)N[C@@H](CCCCN)C(=O)N[C@@H](CCCNC(=N)N)C(=O)N[C@@H](CC(N)=O)C(=O)N[C@@H](CC(N)=O)C(=O)N[C@@H](CO)C(=O)N[C@@H](CCCNC(=N)N)C(=O)N[C@@H](CC(C)C)C(=O)NCC(=O)N[C@@H](CC(N)=O)C(=O)NCC(=O)N[C@H](C(N)=O)C(C)C) [peptide 11 (Pal-HRKRNNSRLGNGV-NH2)]
1.8	> 5	Palmitoyl-HRKRNNSRLGNGVL-NH2 (SMILES CCCCCCCCCCCCCCCC(=O)N[C@@H](Cc1c[nH]cn1)C(=O)N[C@@H](CCCNC(=N)N)C(=O)N[C@@H](CCCCN)C(=O)N[C@@H](CCCNC(=N)N)C(=O)N[C@@H](CC(N)=O)C(=O)N[C@@H](CC(N)=O)C(=O)N[C@@H](CO)C(=O)N[C@@H](CCCNC(=N)N)C(=O)N[C@@H](CC(C)C)C(=O)NCC(=O)N[C@@H](CC(N)=O)C(=O)NCC(=O)N[C@H](C(=O)N[C@@H](CC(C)C)C(N)=O)C(C)C) [peptide 10 (Pal-HRKRNNSRLGNGVL-NH2)]
0.1	1.1	Palmitoyl-VFHRKRNNSRLGNGVLYASVN-NH2 (SMILES CCCCCCCCCCCCCCCC(=O)N[C@H](C(=O)N[C@@H](Cc1ccccc1)C(=O)N[C@@H](Cc1c[nH]cn1)C(=O)N[C@@H](CCCNC(=N)N)C(=O)N[C@@H](CCCCN)C(=O)N[C@@H](CCCNC(=N)N)C(=O)N[C@@H](CC(N)=O)C(=O)N[C@@H](CC(N)=O)C(=O)N[C@@H](CO)C(=O)N[C@@H](CCCNC(=N)N)C(=O)N[C@@H](CC(C)C)C(=O)NCC(=O)N[C@@H](CC(N)=O)C(=O)NCC(=O)N[C@H](C(=O)N[C@@H](CC(C)C)C(=O)N[C@@H](Cc1ccc(O)cc1)C(=O)N[C@@H](C)C(=O)N[C@@H](CO)C(=O)N[C@H](C(=O)N[C@@H](CC(N)=O)C(N)=O)C(C)C)C(C)C)C(C)C) [peptide 24 (Pal-VFHRKRNNSRLGNGVLYASVN-NH2)]
1.2	2.7	Palmitoyl-RKRNNSRLGNGVLYASVN-NH2 (SMILES CCCCCCCCCCCCCCCC(=O)N[C@@H](CCCNC(=N)N)C(=O)N[C@@H](CCCCN)C(=O)N[C@@H](CCCNC(=N)N)C(=O)N[C@@H](CC(N)=O)C(=O)N[C@@H](CC(N)=O)C(=O)N[C@@H](CO)C(=O)N[C@@H](CCCNC(=N)N)C(=O)N[C@@H](CC(C)C)C(=O)NCC(=O)N[C@@H](CC(N)=O)C(=O)NCC(=O)N[C@H](C(=O)N[C@@H](CC(C)C)C(=O)N[C@@H](Cc1ccc(O)cc1)C(=O)N[C@@H](C)C(=O)N[C@@H](CO)C(=O)N[C@H](C(=O)N[C@@H](CC(N)=O)C(N)=O)C(C)C)C(C)C) [peptide 12 (Pal-RKRNNSRLGNGVLYASVN-NH2)]

From patent publication US20110195911A1, “SYNTHETIC ANALOGS OF THE JUXTAMEMBRANE DOMAIN OF IGF1R AND USES THEREOF” (THE UNITED STATES OF AMERICA,AS REPRESENTED BY THE …, priority 2008, published 2011)
